This note sets out measurements from patent US10087225B2, “Formulation of MK2 inhibitor peptides” (MOERAE MATRIX, INC., priority 2015, dated 2018).

Holding throughout (assay): Kinase Profiling Assay
What all share (type): biochemical

In one experiment the target is Flt3(D835Y)(h) (Homo sapiens, UniProt P36888, D835Y).
A further experiment concerns the target MKK7β(h) (Homo sapiens, UniProt O14733).
The next experiment has as its target PKCβI(h) (Homo sapiens, UniProt P05771). The settings on record: 100 μM.
In another experiment the target is CDK1/cyclinB(h) (Homo sapiens, UniProt P06493). The settings on record: 100 μM.
Chain of CDK1/cyclinB(h) (P06493 whole entry): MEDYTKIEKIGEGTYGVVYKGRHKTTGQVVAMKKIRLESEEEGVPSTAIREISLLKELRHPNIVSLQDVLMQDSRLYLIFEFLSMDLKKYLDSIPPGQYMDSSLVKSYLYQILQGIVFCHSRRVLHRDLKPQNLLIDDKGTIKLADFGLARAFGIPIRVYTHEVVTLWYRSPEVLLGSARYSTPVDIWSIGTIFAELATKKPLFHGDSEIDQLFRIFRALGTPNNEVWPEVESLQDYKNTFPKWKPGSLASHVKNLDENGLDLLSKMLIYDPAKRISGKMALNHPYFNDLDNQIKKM
Chain of CDK1/cyclinB(h) (P14635 whole entry partner): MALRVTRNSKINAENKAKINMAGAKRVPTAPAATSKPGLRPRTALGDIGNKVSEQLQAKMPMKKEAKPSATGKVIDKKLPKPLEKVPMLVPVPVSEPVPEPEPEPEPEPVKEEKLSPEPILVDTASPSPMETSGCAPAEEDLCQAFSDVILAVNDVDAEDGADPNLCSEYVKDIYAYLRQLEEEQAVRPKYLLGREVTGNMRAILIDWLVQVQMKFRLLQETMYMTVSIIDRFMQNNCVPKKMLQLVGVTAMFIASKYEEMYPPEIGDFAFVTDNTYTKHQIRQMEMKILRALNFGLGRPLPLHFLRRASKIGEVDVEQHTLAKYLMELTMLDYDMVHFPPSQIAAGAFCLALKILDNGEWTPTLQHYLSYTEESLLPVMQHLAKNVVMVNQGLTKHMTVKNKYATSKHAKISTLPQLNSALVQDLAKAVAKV
The next experiment addresses T1, DDR2(h) (Homo sapiens, UniProt Q16832).
T1 sequence (Q16832 22-855): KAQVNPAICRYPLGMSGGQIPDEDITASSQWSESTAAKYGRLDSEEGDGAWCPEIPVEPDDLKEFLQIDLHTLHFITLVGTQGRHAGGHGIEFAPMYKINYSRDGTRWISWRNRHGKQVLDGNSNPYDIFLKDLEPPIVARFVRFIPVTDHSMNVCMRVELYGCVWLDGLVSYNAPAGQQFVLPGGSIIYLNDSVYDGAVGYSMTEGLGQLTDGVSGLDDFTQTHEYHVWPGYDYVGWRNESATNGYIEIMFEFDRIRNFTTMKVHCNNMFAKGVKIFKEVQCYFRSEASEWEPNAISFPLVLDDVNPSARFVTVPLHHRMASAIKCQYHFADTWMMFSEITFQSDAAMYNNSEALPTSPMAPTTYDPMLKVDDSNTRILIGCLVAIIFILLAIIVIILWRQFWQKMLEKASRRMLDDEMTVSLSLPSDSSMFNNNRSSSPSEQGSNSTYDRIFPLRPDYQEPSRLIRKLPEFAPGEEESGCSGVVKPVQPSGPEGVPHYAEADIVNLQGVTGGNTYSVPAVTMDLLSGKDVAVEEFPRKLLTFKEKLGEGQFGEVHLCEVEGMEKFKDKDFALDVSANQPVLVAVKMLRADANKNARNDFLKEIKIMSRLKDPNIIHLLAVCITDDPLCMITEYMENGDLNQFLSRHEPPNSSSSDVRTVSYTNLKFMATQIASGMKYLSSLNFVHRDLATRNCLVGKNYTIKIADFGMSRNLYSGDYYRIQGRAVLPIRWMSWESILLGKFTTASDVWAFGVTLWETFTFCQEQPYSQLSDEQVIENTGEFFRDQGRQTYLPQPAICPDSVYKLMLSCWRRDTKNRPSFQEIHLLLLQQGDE
Conditions: 100 μM.

The target of another experiment is HIPK3(h) (Homo sapiens, UniProt Q9H422). The settings on record: 100 μM.
Chain of HIPK3(h) (Q9H422 whole entry): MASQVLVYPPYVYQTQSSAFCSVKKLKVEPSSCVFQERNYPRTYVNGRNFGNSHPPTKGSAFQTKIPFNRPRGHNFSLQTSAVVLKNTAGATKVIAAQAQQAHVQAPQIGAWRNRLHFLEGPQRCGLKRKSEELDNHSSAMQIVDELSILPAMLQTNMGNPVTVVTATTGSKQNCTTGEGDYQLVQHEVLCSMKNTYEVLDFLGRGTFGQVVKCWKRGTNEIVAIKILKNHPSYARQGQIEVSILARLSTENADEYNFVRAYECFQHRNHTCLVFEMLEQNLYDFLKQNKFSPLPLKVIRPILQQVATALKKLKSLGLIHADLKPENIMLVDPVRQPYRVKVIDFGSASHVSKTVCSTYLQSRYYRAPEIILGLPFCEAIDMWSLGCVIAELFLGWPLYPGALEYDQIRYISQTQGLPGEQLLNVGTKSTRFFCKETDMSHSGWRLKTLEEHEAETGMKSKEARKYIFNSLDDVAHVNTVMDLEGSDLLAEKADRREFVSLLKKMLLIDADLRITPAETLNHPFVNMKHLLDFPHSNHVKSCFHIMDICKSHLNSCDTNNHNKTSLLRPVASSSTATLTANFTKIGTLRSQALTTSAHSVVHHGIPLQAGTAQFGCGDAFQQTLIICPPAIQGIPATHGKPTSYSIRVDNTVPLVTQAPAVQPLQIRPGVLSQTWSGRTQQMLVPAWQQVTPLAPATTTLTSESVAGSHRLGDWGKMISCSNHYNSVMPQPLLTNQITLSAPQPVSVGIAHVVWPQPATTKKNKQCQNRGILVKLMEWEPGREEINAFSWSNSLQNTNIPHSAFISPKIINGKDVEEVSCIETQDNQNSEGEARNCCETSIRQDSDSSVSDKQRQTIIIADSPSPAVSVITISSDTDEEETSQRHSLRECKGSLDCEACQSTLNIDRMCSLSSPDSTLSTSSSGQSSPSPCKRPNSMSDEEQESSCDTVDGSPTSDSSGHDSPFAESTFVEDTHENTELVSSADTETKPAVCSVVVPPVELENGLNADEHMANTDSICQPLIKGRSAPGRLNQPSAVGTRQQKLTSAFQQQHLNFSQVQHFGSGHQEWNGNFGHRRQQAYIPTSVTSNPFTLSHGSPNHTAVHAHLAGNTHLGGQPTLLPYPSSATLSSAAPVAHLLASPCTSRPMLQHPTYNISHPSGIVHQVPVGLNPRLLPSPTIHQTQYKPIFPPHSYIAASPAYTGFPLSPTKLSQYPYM
A further experiment has as its target c-RAF(h) (Homo sapiens, UniProt P04049). The settings on record: 100 μM.
The next experiment concerns the target T2, IKKβ(h) (Homo sapiens, UniProt O14920).
T2 sequence (O14920 1-756): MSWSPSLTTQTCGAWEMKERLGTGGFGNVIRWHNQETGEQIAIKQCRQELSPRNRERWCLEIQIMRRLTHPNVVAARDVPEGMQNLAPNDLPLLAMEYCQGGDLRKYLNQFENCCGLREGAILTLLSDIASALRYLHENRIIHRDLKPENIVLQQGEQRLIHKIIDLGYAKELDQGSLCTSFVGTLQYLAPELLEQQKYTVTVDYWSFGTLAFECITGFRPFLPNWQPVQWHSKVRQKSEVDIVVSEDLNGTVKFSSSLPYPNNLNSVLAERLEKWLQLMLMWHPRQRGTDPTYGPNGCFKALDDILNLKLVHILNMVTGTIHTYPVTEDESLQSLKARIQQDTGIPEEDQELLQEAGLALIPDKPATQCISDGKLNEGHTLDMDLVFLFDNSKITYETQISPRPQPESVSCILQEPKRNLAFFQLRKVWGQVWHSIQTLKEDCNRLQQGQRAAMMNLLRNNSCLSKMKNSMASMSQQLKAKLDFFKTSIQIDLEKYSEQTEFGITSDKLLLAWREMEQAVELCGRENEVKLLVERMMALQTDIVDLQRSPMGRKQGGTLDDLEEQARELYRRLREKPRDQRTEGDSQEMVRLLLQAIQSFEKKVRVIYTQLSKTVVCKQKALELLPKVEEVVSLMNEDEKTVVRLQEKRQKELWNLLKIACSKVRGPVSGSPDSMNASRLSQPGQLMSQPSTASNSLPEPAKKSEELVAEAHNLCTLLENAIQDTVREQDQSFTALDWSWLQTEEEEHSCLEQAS
The settings on record: 100 μM.

For another experiment, the target named is T3, CHK1(h) (Homo sapiens, UniProt O14757).
T3 sequence (O14757 1-476): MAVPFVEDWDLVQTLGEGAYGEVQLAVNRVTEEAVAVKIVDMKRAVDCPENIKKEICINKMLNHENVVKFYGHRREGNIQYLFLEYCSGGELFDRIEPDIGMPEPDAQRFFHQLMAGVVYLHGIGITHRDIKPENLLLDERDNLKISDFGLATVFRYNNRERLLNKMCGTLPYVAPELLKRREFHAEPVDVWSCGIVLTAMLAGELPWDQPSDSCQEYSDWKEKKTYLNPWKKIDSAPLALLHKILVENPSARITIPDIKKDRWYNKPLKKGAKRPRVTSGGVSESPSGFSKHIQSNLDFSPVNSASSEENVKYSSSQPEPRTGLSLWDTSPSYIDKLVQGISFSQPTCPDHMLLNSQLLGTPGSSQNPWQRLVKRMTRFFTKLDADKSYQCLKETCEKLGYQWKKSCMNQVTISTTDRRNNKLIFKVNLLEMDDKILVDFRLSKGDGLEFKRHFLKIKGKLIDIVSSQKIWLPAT
The settings on record: 100 μM.

The target of another experiment is ROCK-I(h) (Homo sapiens, UniProt Q13464). The settings on record: 100 μM.
Chain of ROCK-I(h) (Q13464 whole entry): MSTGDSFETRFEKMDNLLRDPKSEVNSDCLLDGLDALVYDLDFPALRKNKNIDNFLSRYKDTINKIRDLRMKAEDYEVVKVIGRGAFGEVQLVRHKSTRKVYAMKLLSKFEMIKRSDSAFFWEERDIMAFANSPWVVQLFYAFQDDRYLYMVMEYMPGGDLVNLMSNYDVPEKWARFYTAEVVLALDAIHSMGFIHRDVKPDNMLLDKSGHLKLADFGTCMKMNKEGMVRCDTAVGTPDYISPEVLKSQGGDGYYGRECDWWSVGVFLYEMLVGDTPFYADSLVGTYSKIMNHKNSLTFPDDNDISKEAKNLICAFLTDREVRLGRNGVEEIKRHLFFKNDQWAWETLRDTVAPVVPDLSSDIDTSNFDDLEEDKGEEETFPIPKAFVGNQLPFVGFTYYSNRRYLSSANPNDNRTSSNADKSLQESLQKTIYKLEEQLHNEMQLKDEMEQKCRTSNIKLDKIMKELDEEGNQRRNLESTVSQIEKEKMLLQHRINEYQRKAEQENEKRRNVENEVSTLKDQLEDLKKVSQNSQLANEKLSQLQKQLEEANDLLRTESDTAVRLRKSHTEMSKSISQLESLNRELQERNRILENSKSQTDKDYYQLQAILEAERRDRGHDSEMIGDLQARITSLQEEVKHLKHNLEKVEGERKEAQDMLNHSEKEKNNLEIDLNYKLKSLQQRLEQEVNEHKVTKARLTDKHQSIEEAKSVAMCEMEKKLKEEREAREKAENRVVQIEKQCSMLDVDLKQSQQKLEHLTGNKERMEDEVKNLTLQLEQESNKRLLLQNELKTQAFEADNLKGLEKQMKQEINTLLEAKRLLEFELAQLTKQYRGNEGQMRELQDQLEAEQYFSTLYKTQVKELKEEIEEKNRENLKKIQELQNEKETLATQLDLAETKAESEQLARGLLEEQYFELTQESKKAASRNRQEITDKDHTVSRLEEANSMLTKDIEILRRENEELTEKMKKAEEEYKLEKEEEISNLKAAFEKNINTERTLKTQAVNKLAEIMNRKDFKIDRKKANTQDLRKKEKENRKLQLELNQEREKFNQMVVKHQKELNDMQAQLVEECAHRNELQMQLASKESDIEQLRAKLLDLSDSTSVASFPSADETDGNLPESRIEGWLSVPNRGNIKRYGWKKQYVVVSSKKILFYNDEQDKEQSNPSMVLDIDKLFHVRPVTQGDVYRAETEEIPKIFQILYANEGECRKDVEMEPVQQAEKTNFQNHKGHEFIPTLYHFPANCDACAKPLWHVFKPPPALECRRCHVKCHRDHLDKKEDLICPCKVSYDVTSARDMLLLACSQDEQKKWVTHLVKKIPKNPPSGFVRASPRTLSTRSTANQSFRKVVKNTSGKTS
In another experiment the target is Plk3(h) (Homo sapiens, UniProt Q9H4B4). The settings on record: 100 μM.
Chain of Plk3(h) (Q9H4B4 whole entry): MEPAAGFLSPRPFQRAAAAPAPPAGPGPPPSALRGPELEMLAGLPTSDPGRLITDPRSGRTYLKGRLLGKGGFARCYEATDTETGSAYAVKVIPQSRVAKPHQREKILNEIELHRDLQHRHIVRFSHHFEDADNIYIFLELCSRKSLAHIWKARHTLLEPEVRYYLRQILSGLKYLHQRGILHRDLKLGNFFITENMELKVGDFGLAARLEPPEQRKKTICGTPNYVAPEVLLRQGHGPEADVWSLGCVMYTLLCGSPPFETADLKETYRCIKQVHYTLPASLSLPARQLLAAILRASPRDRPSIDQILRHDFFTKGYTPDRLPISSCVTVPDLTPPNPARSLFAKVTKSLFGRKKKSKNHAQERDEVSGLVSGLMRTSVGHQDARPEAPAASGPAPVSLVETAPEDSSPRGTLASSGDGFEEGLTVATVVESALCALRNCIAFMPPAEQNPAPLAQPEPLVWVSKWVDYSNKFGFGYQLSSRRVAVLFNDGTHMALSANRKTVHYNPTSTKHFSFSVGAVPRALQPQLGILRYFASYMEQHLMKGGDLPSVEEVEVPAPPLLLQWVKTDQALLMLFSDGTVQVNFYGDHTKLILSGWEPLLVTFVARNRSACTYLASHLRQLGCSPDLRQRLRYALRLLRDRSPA
Another experiment deals with T4, TAK1(h) (Homo sapiens, UniProt O43318).
T4 sequence (O43318 1-303 limits assumed): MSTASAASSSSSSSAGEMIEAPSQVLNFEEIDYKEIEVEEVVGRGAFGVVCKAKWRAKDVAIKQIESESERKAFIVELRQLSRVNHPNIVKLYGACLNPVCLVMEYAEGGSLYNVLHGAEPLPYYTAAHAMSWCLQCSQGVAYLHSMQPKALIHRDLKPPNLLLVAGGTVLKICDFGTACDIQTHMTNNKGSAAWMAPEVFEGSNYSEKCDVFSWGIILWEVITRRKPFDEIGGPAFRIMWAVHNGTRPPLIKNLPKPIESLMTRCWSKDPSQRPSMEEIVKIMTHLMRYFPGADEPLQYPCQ
Conditions: 100 μM.

Chain of PKCβI(h) (P05771 whole entry): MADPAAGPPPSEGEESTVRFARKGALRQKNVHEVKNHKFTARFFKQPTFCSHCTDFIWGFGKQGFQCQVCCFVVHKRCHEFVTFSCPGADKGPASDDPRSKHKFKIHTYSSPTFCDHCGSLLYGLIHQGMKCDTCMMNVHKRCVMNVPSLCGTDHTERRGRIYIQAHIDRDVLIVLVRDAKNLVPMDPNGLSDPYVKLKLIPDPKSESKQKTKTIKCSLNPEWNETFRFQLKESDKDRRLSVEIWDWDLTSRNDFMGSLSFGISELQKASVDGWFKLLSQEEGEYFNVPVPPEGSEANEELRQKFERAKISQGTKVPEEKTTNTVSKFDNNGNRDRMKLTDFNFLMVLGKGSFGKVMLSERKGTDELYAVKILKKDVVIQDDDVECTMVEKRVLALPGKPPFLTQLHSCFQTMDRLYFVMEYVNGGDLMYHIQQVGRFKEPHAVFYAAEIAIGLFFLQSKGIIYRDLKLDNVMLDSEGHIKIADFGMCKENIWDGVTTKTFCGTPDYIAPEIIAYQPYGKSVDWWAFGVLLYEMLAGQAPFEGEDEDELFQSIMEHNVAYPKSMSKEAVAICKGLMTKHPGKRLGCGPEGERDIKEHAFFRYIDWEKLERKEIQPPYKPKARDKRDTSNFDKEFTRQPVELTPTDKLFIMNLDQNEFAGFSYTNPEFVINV
Chain of MKK7β(h) (O14733 whole entry): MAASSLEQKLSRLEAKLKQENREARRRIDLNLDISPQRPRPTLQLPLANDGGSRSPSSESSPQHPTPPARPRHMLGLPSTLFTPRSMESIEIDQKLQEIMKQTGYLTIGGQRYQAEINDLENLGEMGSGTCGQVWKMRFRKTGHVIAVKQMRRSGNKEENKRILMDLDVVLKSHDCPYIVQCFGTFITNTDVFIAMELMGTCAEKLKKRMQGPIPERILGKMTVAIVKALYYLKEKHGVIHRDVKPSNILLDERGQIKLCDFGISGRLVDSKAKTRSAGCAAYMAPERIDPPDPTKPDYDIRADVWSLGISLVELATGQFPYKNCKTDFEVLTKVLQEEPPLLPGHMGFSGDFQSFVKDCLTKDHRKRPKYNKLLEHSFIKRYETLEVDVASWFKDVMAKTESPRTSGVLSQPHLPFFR

For H-YARAAARQARAKALARQLGVAA-OH [MMI-0100], the activity at 100 µM is 120% at Flt3(D835Y)(h) and 137% on MKK7β(h).

Turning to “HRRIKAWLKKIKALARQLGVAA (Mammalian) [MMI-0500]”, the “% activity” value with Flt3(D835Y)(h) (100 μM) was 65%; in the experiment with PKCβI(h), 1%; with CDK1/cyclinB(h), 57%; with DDR2(h), 79%; in the experiment with HIPK3(h) it was 85%; with c-RAF(h), 19%. Further, the “% activity” value in the experiment with IKKβ(h) is recorded as 71%; with CHK1(h), 65%; with ROCK-I(h) it was 17%; with Plk3(h), 122%.

In the case of “YARAAARQARAKALNRQLGVA (Mammalian) [MMI-0200]”, the entries for the “% activity” value with PKCβI(h) and in the experiment with TAK1(h) were 98% and 124%, respectively.
